Laboratory results as given in US20160319033A1 (INSERM INSTITUT NATIONAL DE LA SANTE ET DE LA RECHERCHE …, published 2016).

How the values were obtained:
[1] = biological target: T1, human HER3 receptor on cells (human, UniProt P21860 20-1342); assay: fluorescence of d2-labelled NRG on HER2/HER3-transfected 3T3 fibroblasts; unlabelled NRG varied, displaced molecule: d2-labelled NRG
T1 construct: whole, on cells; also called ErbB3
Procedure: (§1) After KREBS washing, fluorescence at 620/670 nm was measured using a Pherastar microplate reader.

[2] = biological target: T1, human HER3 receptor on cells; assay: flow cytometry competition on SKBR3 cells; NRG varied, displaced molecule: antibody B at a fixed concentration
Procedure: Cells were then washed and further incubated with a 1:60 dilution of appropriate FITC-conjugated secondary antibody (Sigma) for 45 min on ice, before cytometry analysis on a Quanta apparatus (Beckman-Coulter).

[3] = biological target: T2, HER3 Snap-tagged, on HEK cells (human, UniProt P21860 20-1342, Snap-tag labelled with Lumi4-terbium cryptate donor); assay: Tag-Lite HTRF on HER3 Snap-tagged HEK cells; d2-labelled 9F7-F11 varied; co-incubated with NRG (legend printed 'NRG 100 mM')
T2 construct: whole, on cells; also called HER3 Snap-tagged HEK cells; not shown: Snap-tag (CisBio Tag-Lite)
Procedure: (§2) After 16 h of incubation, the fluorescence of Lumi4-terbium and d2 was measured respectively at 620 and 665 nm (60 μs delay, 400 μs integration) upon 337 nm excitation on a Pherastar FS instrument.

[4] = biological target: T2, HER3 Snap-tagged, on HEK cells; assay: Tag-Lite HTRF on HER3 Snap-tagged HEK cells, with NRG against without NRG
Procedure: as §2

[5] = biological target: T2, HER3 Snap-tagged, on HEK cells; assay: Tag-Lite HTRF on HER3 Snap-tagged HEK cells; d2-labelled 9F7-F11 varied; without NRG
Procedure: as §2

[6] = biological target: T1, human HER3 receptor on cells; assay: fluorescence of d2-labelled NRG on HER2/HER3-transfected 3T3 fibroblasts; 9F7-F11 varied; half-maximal enhancement of the binding of labelled NRG to HER3
Procedure: as §1

[7] = biological target: T2, HER3 Snap-tagged, on HEK cells; assay: Tag-Lite HTRF on HER3 Snap-tagged HEK cells, d2-labelled mAb, without NRG
Procedure: as §2

[8] = biological target: T2, HER3 Snap-tagged, on HEK cells; assay: Tag-Lite HTRF on HER3 Snap-tagged HEK cells, d2-labelled mAb, co-incubated with NRG
Procedure: as §2

Row | IC50 (read off the curve) [1] [nM] | IC50 (read off the curve) [2] [nM] | EC50 (read off the curve) [3] [nM] | fold increase of affinity with NRG against without NRG [4] [fold] | EC50 (read off the curve) [5] [nM] | EC50 (read off the curve) [6] [nM] | Kd [7] [nM] | Kd [8] [nM] | Binder
1 | ~5 | ~2 | – | – | – | – | – | – | neuregulin (NRG) (ligand, UniProt Q02297-6 177-241, looked up, also: d2 dye label as tracer, site not given here, also called neuregulin 131 (as printed, probably neuregulin beta1); heregulin) SHLVKCAEKEKTFCVNGGECFMVKDLSNPSRYLCKCPNEFTGDRCQNYVMASFYKHLGIEFMEAE
2 | – | – | ~0.5 | 6 | ~2 | ~10 | 2.33 | 0.47 | murine anti-human-HER3 monoclonal antibody 9F7-F11 (antibody, V domains shown, Murine hybridoma antibody; also called mAb 9F7-F11; anti-HER3 Ab 9F7-F11) VH: EVKLVESGGGLVQPGGSLKLSCAASGFTFSSYTMSWVRQTPEKRLEWVAYISDGGGVTYYPDTIKGRFTISRDNAKNTLYLQMSSLKSEDTAMYYCARDRYGLFAYWGQGTLVTVSA VL: DIVMTQSQKFMSTSVGDRVSITCKASQNVGIAVAWYQQKPGQSPKLLIYSASNRYTGVPDRFTGSGSGTDFTLTISNMQSEDLADYFCQQYSNYPYTFGGGTKLEIK
